From patent publication US10870693B2, “Therapeutic combination and methods of treatment with a DLL4 antagonist and an anti-hypertensive agent” (OncoMed Pharmaceuticals, Inc., priority 2009, dated 2020)
Structures can show the parent of a compound that is named as a salt.

How the values were obtained:
[1] = Phase 1 study of OMP-21M18: blood pressure readings and anti-hypertensive treatment of individual subjects
Experimental: For study days in which an infusion of OMP-21M18 was administered, blood pressure readings include a reading pre-infusion, 15 minutes after the start of infusion, at the end of infusion, and 15 minutes post-infusion.
OMP-21M18 was administered at dosages of 0.5 mg/kg weekly to three subjects, 1.0 mg/kg weekly to three subjects, 2.5 mg/kg every two weeks to six subjects, 2.5 mg/kg weekly to six subjects, 5.0 mg/kg every two weeks to six subjects, 5.0 mg/kg weekly to three subjects, and 10.0 mg/kg every two weeks to six subjects. According to the study protocol, the administration period was nine weeks, unless a subject was removed from the study due to a dose limiting toxicity. Baseline blood pressure readings were taken just prior to administration of the first dosage. Toxicities were assessed using the National Institute of Health's Common Toxicity Criteria for Adverse Events (CTCAE) version 3.0. During the study, subjects were assessed for dose limiting toxicities from the time of the first dose through 7 days after administration of the fourth dose (Days 0-28).

[2] = Phase 1 dose escalation study of OMP-21M18 in subjects with solid tumors: incidence of hypertension (CTCAE v3.0); assay type: in vivo; conditions: for Grade 3 Hypertension / Grade 4 Hypertension: number of patients
Experimental: Thirty-three subjects with advanced solid tumors initiated treatment with OMP-21M18 in a Phase I clinical trial. The trial was designed to determine the maximum tolerated dose (MTD), safety, pharmacokinetics, immunogenicity, and preliminary efficacy of OMP-21M18 in subjects with advanced solid tumors. All subjects had histologically confirmed malignancies that were metastatic or unresectable and had received extensive treatment for their cancer.
OMP-21M18 was prepared for use at a concentration of 10 mg/mL in a solution of 50 mM histidine, 100 mM sodium chloride, 45 mM sucrose, and 0.01% (w/v) Polysorbate 20, with the pH adjusted to 6.0. Once prepared, OMP-21M18 was stored as 20 mL aliquots in 25-cc vials.

[3] = Subject 1 on OMP-21M18 0.5 mg/kg weekly, Lotensin, Norvasc and hydrochlorothiazide together
[4] = Subject 2 on OMP-21M18 1 mg/kg, labetalol 400 bid, lasix 20 mg qd, Norvasc 10 mg qd, Prinzide 20/25 mg together, 7 additional OMP-21M18 doses without hypertension
[5] = 2.5 mg/kg every 2 weeks, 6 patients
[6] = 5.0 mg/kg every 2 weeks, 6 patients
[7] = 10.0 mg/kg every 2 weeks, 6 patients, one patient had both Grade 3 and Grade 4

Molecule: CCOC(=O)[C@H](CCc1ccccc1)N[C@H]1CCc2ccccc2N(CC(=O)O)C1=O [Lotensin®, benazepril hydrochloride, reference compound]
- blood pressure control by anti-hypertensive regimen [1, 3]: adequate blood pressure control

Molecule: CCOC(=O)C1=C(COCCN)NC(C)=C(C(=O)OC)C1c1ccccc1Cl (centres unmarked) [Norvasc®, amlodipine besylate, reference compound]
- blood pressure control by anti-hypertensive regimen [1, 3]: adequate blood pressure control
- blood pressure control by anti-hypertensive regimen [1, 4]: controlled their blood pressure
- adverse event leading to discontinuation of anti-hypertensive ([1]; Subject 3 on OMP-21M18 2.5 mg/kg, Norvasc 5 mg qd, discontinued Day 141): ankle edema

Molecule: NS(=O)(=O)c1cc2c(cc1Cl)NCNS2(=O)=O [hydrochlorothiazide, reference compound]
- blood pressure control by anti-hypertensive regimen [1, 3]: adequate blood pressure control

Molecule: CC(CCc1ccccc1)NCC(O)c1ccc(O)c(C(N)=O)c1 (centres unmarked) [labetalol, reference compound]
- blood pressure control by anti-hypertensive regimen [1, 4]: controlled their blood pressure

Molecule: NS(=O)(=O)c1cc(C(=O)O)c(NCc2ccco2)cc1Cl [lasix, reference compound]
- blood pressure control by anti-hypertensive regimen [1, 4]: controlled their blood pressure

B1: OMP-21M18: humanized anti-DLL4 antibody encoded by the plasmid with ATCC deposit number PTA-8425 (antibody, V domains shown)
VH: QVQLVQSGAEVKKPGASVKISCKASGYSFTAYYIHWVKQAPGQGLEWIGYISSYNGATNYNQKFKGRVTFTTDTSTSTAYMELRSLRSDDTAVYYCARDYDYDVGMDYWGQGTLVTVSS
VL: DIVMTQSPDSLAVSLGERATISCRASESVDNYGISFMKWFQQKPGQPPKLLIYAASNQGSGVPDRFSGSGSGTDFTLTISSLQAEDVAVYYCQQSKEVPWTFGGGTKVEIK
modifications: Heavy chain variable region, H7; Light chain variable region
- Total Incidence of Hypertension ([2]; 0.5 mg/kg weekly, 3 patients): 1/3
- Grade 3 Hypertension ([2]; 0.5 mg/kg weekly, 3 patients): 1
- Grade 4 Hypertension ([2]; 0.5 mg/kg weekly, 3 patients): 0
- Total Incidence of Hypertension ([2]; 1.0 mg/kg weekly, 3 patients): 1/3
- Grade 3 Hypertension ([2]; 1.0 mg/kg weekly, 3 patients): 1
- Grade 4 Hypertension ([2]; 1.0 mg/kg weekly, 3 patients): 0
- Total Incidence of Hypertension [2, 5]: 1/6
- Grade 3 Hypertension [2, 5]: 1
- Grade 4 Hypertension [2, 5]: 0
- Total Incidence of Hypertension ([2]; 2.5 mg/kg weekly, 6 patients): 2/6
- Grade 3 Hypertension ([2]; 2.5 mg/kg weekly, 6 patients): 2
- Grade 4 Hypertension ([2]; 2.5 mg/kg weekly, 6 patients): 0
- Total Incidence of Hypertension [2, 6]: 1/3
- Grade 3 Hypertension [2, 6]: 1
- Grade 4 Hypertension [2, 6]: 0
- Total Incidence of Hypertension ([2]; 5.0 mg/kg weekly, 3 patients): 0/3
- Grade 3 Hypertension ([2]; 5.0 mg/kg weekly, 3 patients): 0
- Grade 4 Hypertension ([2]; 5.0 mg/kg weekly, 3 patients): 0
- subjects who experienced Grade 3 or Grade 4 hypertension ([2]; 10.0 mg/kg dose level): 6 of 6
- Total Incidence of Hypertension ([2]; 10.0 mg/kg every 2 weeks, 6 patients): 6/6
- Grade 3 Hypertension [2, 7]: 6
- Grade 4 Hypertension [2, 7]: 1
- subjects whose hypertension was labeled grade three ([2]; of the twelve subjects with hypertension, asymptomatic, controlled with oral anti-hypertensive, treatment continued): eleven
- subjects for whom hypertension was reported during the course of therapy ([2]; of thirty-three subjects, all dose cohorts): twelve
- patients with hypertension reported ([2]; thirty-three subjects, all dose cohorts): 36%
- blood pressure, highest reported ([1]; Subject 1, 0.5 mg/kg weekly, Day 21, 15 minutes post infusion, baseline 135/73, on Lotensin 30 mg qd): 199/92
- blood pressure ([1]; Subject 1, 0.5 mg/kg weekly, Day 24, baseline 135/73, on Lotensin 30 mg qd): 183/89
- blood pressure ([1]; Subject 1, 0.5 mg/kg weekly, Day 32, on Lotensin 40 mg qd and Norvasc 5 mg qd): 177/88
- blood pressure ([1]; Subject 1, 0.5 mg/kg weekly, Day 41, on Lotensin 40 mg qd and Norvasc 10 mg qd): 160/85
- blood pressure ([1]; Subject 2, 1 mg/kg weekly, Day 7 (high), baseline 141/85, on lisinopril 10 mg qd): 177/93
- blood pressure ([1]; Subject 2, 1 mg/kg weekly, Day 14, on lisinopril plus irbesartan/hydrochlorothiazide, study drug dose not administered): 173/110
- blood pressure ([1]; Subject 2, 1 mg/kg weekly, Day 21, on labetalol 100 mg bid and Prinzide 10/12.5 qd): 164/112
- blood pressure ([1]; Subject 2, 1 mg/kg weekly, Day 55, on labetalol 400 mg bid and Prinzide 10/12.5 qd): 163/91
- blood pressure ([1]; Subject 2, 1 mg/kg, Day 84, on labetalol 400 mg bid and Prinzide 20/25 qd, OMP-21M18 dose not administered): 167/102
- blood pressure ([1]; Subject 3, 2.5 mg/kg weekly, Day 21, baseline 96/54, no prior history of hypertension): 159/90
- blood pressure ([1]; Subject 3, 2.5 mg/kg, Day 112, on Dyazide 1 po qd): 152/77
- blood pressure ([1]; Subject 3, 2.5 mg/kg, Day 146, on lisinopril 20 mg bid): 143/85
- blood pressure ([1]; Subject 4, 2.5 mg/kg cohort, Day 14, baseline 118/73, on dyazide and lisinopril, increase not related to study drug according to the Investigator): 153/79
- blood pressure ([1]; Subject 5, 10 mg/kg once every other week, Day 9, baseline 130/90): 160/90
- blood pressure ([1]; Subject 5, 10 mg/kg once every other week, Day 26, at home, on lisinopril 5 mg qd): 170/90
- blood pressure ([1]; Subject 5, 10 mg/kg once every other week, Day 62, on lisinopril 10 mg bid): 190/120
- blood pressure ([1]; Subject 5, 10 mg/kg once every other week, Day 65, on lozartan 25 mg, bisoprolol 2.5 mg, amlodipine 5 mg qd): 170/106
- blood pressure ([1]; Subject 6, 10 mg/kg cohort, Day 28, single reading, on enalapril): 150/90
- blood pressure ([1]; Subject 6, 10 mg/kg cohort, subsequent reading after Day 28, on enalapril): 150/90
- blood pressure ([1]; Subject 6, 10 mg/kg cohort, subsequent to start of enalapril 10 mg bid on Day 9, baseline 125/90): 140/90
- blood pressure ([1]; Subject 7, 10 mg/kg once every other week, Day 9, baseline 135/90, on enalapril 5 mg bid): 170/90
- blood pressure ([1]; Subject 7, 10 mg/kg once every other week, Day 56, on enalapril 10 mg bid): 155/90
- blood pressure ([1]; Subject 8, 10 mg/kg once every other week, Day 17, home reading, baseline 140/90, captopril 25 mg as needed): 160/90
- blood pressure ([1]; Subject 8, 10 mg/kg once every other week, Day 22, in the clinic, on captopril 12.5 qd): 130/80
- blood pressure ([1]; Subject 8, 10 mg/kg once every other week, Days 23-28, at home, on captopril 12.5 qd): 150/90
- blood pressure ([1]; Subject 9, 10 mg/kg once every other week, Day 7, on nifedipine 20 mg qd): 130/80
- blood pressure ([1]; Subject 9, 10 mg/kg once every other week, Day 74, on nifedipine 20 mg qd, then discontinued): 115/75
